Assay [1] concerns the target human HER2 (ErbB2), human epidermal growth factor receptor 2 protein (human) (UniProt P04626). Nature of the assay: flow cytometry on SKOV-3 cells, background without primary antibody.
The target is the same in assay [2]. As to the kind of experiment: flow cytometry on JIMT-1 cells, background without primary antibody.
For assay [3], the target named is Jurkat cells (human T leukemia cells; do not express human HER2). As to the kind of experiment: flow cytometry on HER2-negative Jurkat cells, background without primary antibody.

This note sets out measurements from patent US20160051695A1.

Turning to “goat F(ab')2-anti-human IgG (H+L)-RPE (Southern Biotech, Cat. No. 2043-09)”, the MFI amounted to 8 in assay [1], 3.29 in assay [2] and 9 in assay [3].
